Test results as given in US20210230286A1 (published 2021).
Where no end group is shown, it is not given here.

Target: T1, PD-L1 protein (human, UniProt Q9NZQ7 19-238, limits assumed)
T1 construct: Plate-coated recombinant protein; also called human PD-L1 protein
Assay: ELISA: PD-L1 coated at 2 ug/ml, FITC-labelled PPLC titrated, HRP anti-FITC detection, OD 410 nm
Protocol: A 96-well ELISA plate was coated with 2μg/ml PD-L1 protein at 4° C. overnight. […] After incubation, HRP-conjugated anti-FITC antibody was added, incubated for 1 h, and then ABTS coloring solution was added. The OD value at 410 nm was measured using a M5 microplate reader, and GraphPad Prism 6 was used for plotting and analysis.

T1 sequence (Q9NZQ7 19-238 limits assumed): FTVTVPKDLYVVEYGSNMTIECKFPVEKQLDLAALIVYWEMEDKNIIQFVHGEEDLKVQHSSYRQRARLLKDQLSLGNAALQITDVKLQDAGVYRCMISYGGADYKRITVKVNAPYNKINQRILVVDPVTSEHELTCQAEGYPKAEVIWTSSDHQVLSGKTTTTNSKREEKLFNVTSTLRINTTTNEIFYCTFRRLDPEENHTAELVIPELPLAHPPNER

Kd: 750 nM
B1: PPLC peptide labeled with FITC (peptide)
peptide: VSVSHFQKVWVV
modifications: also: FITC label, attachment not given here
notes: Chemically synthesized peptide; The FITC-labelled form was used in the direct ELISA, flow cytometry and confocal assays; also called FITC-labeled PPLC
